In US20180346602A1:

Tests used:
[1] = target: anti-VEGF/ANG2 antibody (wild-type IgG1 subclass) (human) [IgG part: P01857]; assay: sandwich ELISA assay C; capture on SA plate; tracer FcγRI-Dig; analyte 25 ng/mL
[2] = target: anti-VEGF/ANG2 antibody (wild-type IgG1 subclass) (human) [IgG part: P01857]; assay: sandwich ELISA assay C; capture on SA plate; tracer FcγRI-Dig; analyte 50 ng/mL
[3] = target: anti-VEGF/ANG2 antibody (wild-type IgG1 subclass) (human) [IgG part: P01857]; assay: sandwich ELISA assay B; capture on SA plate; tracer M1.7.10-Dig; analyte 3 ng/mL
[4] = target: anti-VEGF/ANG2 antibody (wild-type IgG1 subclass) (human) [IgG part: P01857]; assay: sandwich ELISA assay B; capture on SA plate; tracer M1.7.10-Dig; analyte 6 ng/mL
[5] = target: anti-VEGF/ANG2 antibody (wild-type IgG1 subclass) (human) [IgG part: P01857]; assay: sandwich ELISA assay B; capture on SA plate; tracer M1.7.10-Dig; analyte 13 ng/mL
[6] = target: anti-VEGF/ANG2 antibody (wild-type IgG1 subclass) (human) [IgG part: P01857]; assay: sandwich ELISA assay B; capture on SA plate; tracer M1.7.10-Dig; analyte 25 ng/mL
[7] = target: anti-VEGF/ANG2 antibody (wild-type IgG1 subclass) (human) [IgG part: P01857]; assay: sandwich ELISA assay B; capture on SA plate; tracer M1.7.10-Dig; analyte 50 ng/mL
target antibodies [8] = assay: depletion of target antibody from sample; concentration before depletion 30.00 µg/mL
target antibodies [9] = assay: depletion of target antibody from sample; concentration before depletion 100.00 µg/mL
target antibodies [10] = assay: depletion of target antibody from sample; concentration before depletion 1000.00 µg/mL
[11] = target: anti-VEGF/ANG2 antibody (IgG1 subclass with mutations P329G/L234A/L235A/I253A/H310A/H435A) [IgG part: P01857]; assay: sandwich ELISA assay E; tracer M1.7.10-Dig; analyte 1) at 25 ng/mL
[12] = target: anti-VEGF/ANG2 antibody (IgG1 subclass with mutations P329G/L234A/L235A/I253A/H310A/H435A) [IgG part: P01857]; assay: sandwich ELISA assay E; tracer M1.7.10-Dig; analyte 1) at 50 ng/mL
[13] = target: anti-VEGF/ANG2 antibody (IgG1 subclass with mutations P329G/L234A/L235A/I253A/H310A/H435A) [IgG part: P01857]; assay: sandwich ELISA assay E; tracer M1.7.10-Dig; analyte 1) at 100 ng/mL
[14] = target: anti-VEGF/ANG2 antibody (IgG1 subclass with mutations P329G/L234A/L235A) [IgG part: P01857]; assay: sandwich ELISA assay E; tracer M1.7.10-Dig; analyte 2) at 100 ng/mL
[15] = target: anti-VEGF/ANG2 antibody (IgG1 subclass with mutations P329G/L234A/L235A/I253A/H310A/H435A) [IgG part: P01857]; assay: sandwich ELISA assay E; tracer M1.7.10-Dig; analyte 1) at 3.124 ng/mL
[16] = target: anti-VEGF/ANG2 antibody (IgG1 subclass with mutations P329G/L234A/L235A) [IgG part: P01857]; assay: sandwich ELISA assay E; tracer M1.7.10-Dig; analyte 2) at 3.124 ng/mL
[17] = target: anti-Dig antibody (IgG1 subclass with mutations P329G/L234A/L235A) [IgG part: P01857]; assay: sandwich ELISA assay D; tracer M1.7.10-Dig; analyte conc. not printed (row 2 of 8)
[18] = target: anti-Dig antibody (IgG1 subclass with mutations P329G/L234A/L235A) [IgG part: P01857]; assay: sandwich ELISA assay D; tracer M1.7.10-Dig; analyte conc. not printed (row 3 of 8)
[19] = target: anti-Dig antibody (IgG1 subclass with mutations P329G/L234A/L235A) [IgG part: P01857]; assay: sandwich ELISA assay D; tracer M1.7.10-Dig; analyte conc. not printed (row 4 of 8)
[20] = target: anti-Dig antibody (IgG1 subclass with mutations P329G/L234A/L235A) [IgG part: P01857]; assay: sandwich ELISA assay D; tracer M1.7.10-Dig; analyte conc. not printed (row 6 of 8)
[21] = target: anti-Dig antibody (IgG1 subclass with mutations P329G/L234A/L235A) [IgG part: P01857]; assay: sandwich ELISA assay D; tracer M1.7.10-Dig; analyte conc. not printed (row 8 of 8)
[22] = target: anti-Dig antibody (IgG1 subclass with mutations P329G/L234A/L235A) [IgG part: P01857]; assay: sandwich ELISA assay D; tracer M1.19.31-Dig; analyte conc. not printed (row 1 of 8)
[23] = target: anti-Dig antibody (IgG1 subclass with mutations P329G/L234A/L235A) [IgG part: P01857]; assay: sandwich ELISA assay D; tracer M1.19.31-Dig; analyte conc. not printed (row 6 of 8)
[24] = target: anti-Dig antibody (IgG1 subclass with mutations P329G/L234A/L235A) [IgG part: P01857]; assay: sandwich ELISA assay D; tracer M1.19.31-Dig; analyte conc. not printed (row 7 of 8)
[25] = target: anti-Dig antibody (IgG1 subclass with mutations P329G/L234A/L235A) [IgG part: P01857]; assay: sandwich ELISA assay D; tracer M1.19.31-Dig; analyte conc. not printed (row 8 of 8)

B1: anti-AAA variant Fc-region antibody M1.6.22 (antibody, V domains shown)
VH: EVQLVESGGDLVKPGGSLKLSCAASGFTFSSYGMSWVRQTPDKRLEWVATISSGGSYIYYPDSVKGRFTISRDNAKNTLYLQMSSLKSEDTAMYYCARLGMITTGYAMDYWGQGTSVTVSS
VL: DVLMTQTPLSLPVSLGDQASISCRSSQTIVHSTGHTYLEWFLQKPGQSPKLLIYKVSNRFSGVPDRFSGSGSGTDFTLKISRVEAEDLGVYYCFQGSHVPYTFGGGTKLEIK
signal [OD405 nm] [1]: 0.066 OD405 nm | signal [OD405 nm] [2]: 0.067 OD405 nm | signal [OD405 nm] [3]: 0.037 OD405 nm | signal [OD405 nm] [4]: 0.039 OD405 nm | signal [OD405 nm] [5]: 0.046 OD405 nm | signal [OD405 nm] [6]: 0.047 OD405 nm | signal [OD405 nm] [7]: 0.049 OD405 nm | concentration after depletion (target antibodies [8]): 0.0054 µg/mL | recovery [%] (target antibodies [8]): 0.018% | concentration after depletion (target antibodies [9]): 0.0143 µg/mL | recovery [%] (target antibodies [9]): 0.014% | concentration after depletion (target antibodies [10]): 0.0163 µg/mL | recovery [%] (target antibodies [10]): 0.002%

B2: anti-variant (human) Fc-region antibody M1.3.17 (antibody, V domains shown)
VH: EVKLLESGGGLVQPGGSLKLSCAASGIDFRRYWMNWVRQAPGKGLEWIGEIDPDSSTINYTPSLKDKFIISRDNAKNTMYLQMRKVRSEDTALYYCARPYDYGAWFAYWGQGTLVTVSA
VL: QAVVTQESALTTSPGETVTLTCRSTTGAVTTSNYANWVQEKPDHLFTGLIGGTNKRAPGVPARFSGSLIGDKAALTITGAQTEDEAIYFCALWYSDHWVFGGGTKLTVL
signal [OD405 nm] [11]: 1.6 OD405 nm | signal [OD405 nm] [12]: 1.95 OD405 nm | signal [OD405 nm] [13]: 2.29 OD405 nm | signal [OD405 nm] [14]: 2.27 OD405 nm | signal [OD405 nm] [15]: 0.383 OD405 nm | signal [OD405 nm] [16]: 0.316 OD405 nm | signal 10% cynomolgus serum [OD405 nm] [17]: 1.18 OD405 nm | signal 10% human serum [OD405 nm] [17]: 2.55 OD405 nm | signal buffer [OD405 nm] [17]: 0.038 OD405 nm | signal 10% cynomolgus serum [OD405 nm] [18]: 0.485 OD405 nm | signal 10% human serum [OD405 nm] [18]: 2.51 OD405 nm | signal buffer [OD405 nm] [18]: 0.037 OD405 nm | signal 10% cynomolgus serum [OD405 nm] [19]: 0.194 OD405 nm | signal 10% human serum [OD405 nm] [19]: 2.48 OD405 nm | signal buffer [OD405 nm] [19]: 0.032 OD405 nm | signal 10% cynomolgus serum [OD405 nm] [20]: 0.065 OD405 nm | signal 10% human serum [OD405 nm] [20]: 2.53 OD405 nm | signal buffer [OD405 nm] [20]: 0.032 OD405 nm | signal 10% cynomolgus serum [OD405 nm] [21]: 0.044 OD405 nm | signal 10% human serum [OD405 nm] [21]: 2.51 OD405 nm | signal buffer [OD405 nm] [21]: 0.031 OD405 nm | signal 10% cynomolgus serum [OD405 nm] [22]: 1.87 OD405 nm | signal 10% human serum [OD405 nm] [22]: 2.58 OD405 nm | signal buffer [OD405 nm] [22]: 0.05 OD405 nm | signal 10% cynomolgus serum [OD405 nm] [23]: 0.082 OD405 nm | signal 10% human serum [OD405 nm] [23]: 1.67 OD405 nm | signal buffer [OD405 nm] [23]: 0.033 OD405 nm | signal 10% cynomolgus serum [OD405 nm] [24]: 0.075 OD405 nm | signal 10% human serum [OD405 nm] [24]: 1.71 OD405 nm | signal buffer [OD405 nm] [24]: 0.033 OD405 nm | signal 10% cynomolgus serum [OD405 nm] [25]: 0.077 OD405 nm | signal 10% human serum [OD405 nm] [25]: 1.8 OD405 nm | signal buffer [OD405 nm] [25]: 0.036 OD405 nm | concentration after depletion (target antibodies [8]): 0.008 µg/mL | recovery [%] (target antibodies [8]): 0.027% | concentration after depletion (target antibodies [9]): 0.0173 µg/mL | recovery [%] (target antibodies [9]): 0.017% | concentration after depletion (target antibodies [10]): 0.0169 µg/mL | recovery [%] (target antibodies [10]): 0.002%

B3: anti-variant (human) Fc-region antibody M1.7.24 (antibody, V domains shown)
VH: EVKLLESGGGLVQPGGSLKLSCAASGFDFSRYWMNWVRQAPGKGLEWIGEITPDSSTINYTPSLKDKFIISRDNAKNTLYLQMIKVRSEDTALYYCVRPYDYGAWFASWGQGTLVTVSA
VL: QAVVTQESALTTSPGETVTLTCRSSTGAVTTSNYANWVQEKPDHLFTGLIGGTNKRAPGVPARFSGSLIGDKAALTITGAQTEDEAIYFCALWYSNHWVFGGGTKLTVL
signal [OD405 nm] [11]: 1.55 OD405 nm | signal [OD405 nm] [12]: 1.94 OD405 nm | signal [OD405 nm] [13]: 2.31 OD405 nm | signal [OD405 nm] [14]: 2.22 OD405 nm | signal [OD405 nm] [15]: 0.363 OD405 nm | signal [OD405 nm] [16]: 0.298 OD405 nm | signal [OD405 nm] [1]: 0.063 OD405 nm | signal [OD405 nm] [2]: 0.066 OD405 nm | signal [OD405 nm] [3]: 0.033 OD405 nm | signal [OD405 nm] [4]: 0.038 OD405 nm | signal [OD405 nm] [5]: 0.04 OD405 nm | signal [OD405 nm] [6]: 0.041 OD405 nm | signal [OD405 nm] [7]: 0.04 OD405 nm | signal 10% cynomolgus serum [OD405 nm] [17]: 1.41 OD405 nm | signal 10% human serum [OD405 nm] [17]: 2.61 OD405 nm | signal buffer [OD405 nm] [17]: 0.046 OD405 nm | signal 10% cynomolgus serum [OD405 nm] [18]: 0.575 OD405 nm | signal 10% human serum [OD405 nm] [18]: 2.48 OD405 nm | signal buffer [OD405 nm] [18]: 0.039 OD405 nm | signal 10% cynomolgus serum [OD405 nm] [19]: 0.223 OD405 nm | signal 10% human serum [OD405 nm] [19]: 2.46 OD405 nm | signal buffer [OD405 nm] [19]: 0.034 OD405 nm | signal 10% cynomolgus serum [OD405 nm] [20]: 0.05 OD405 nm | signal 10% human serum [OD405 nm] [20]: 2.4 OD405 nm | signal buffer [OD405 nm] [20]: 0.031 OD405 nm | signal 10% cynomolgus serum [OD405 nm] [21]: 0.031 OD405 nm | signal 10% human serum [OD405 nm] [21]: 2.45 OD405 nm | signal buffer [OD405 nm] [21]: 0.033 OD405 nm | signal 10% cynomolgus serum [OD405 nm] [22]: 2.25 OD405 nm | signal 10% human serum [OD405 nm] [22]: 2.5 OD405 nm | signal buffer [OD405 nm] [22]: 0.054 OD405 nm | signal 10% cynomolgus serum [OD405 nm] [23]: 0.049 OD405 nm | signal 10% human serum [OD405 nm] [23]: 1.36 OD405 nm | signal buffer [OD405 nm] [23]: 0.033 OD405 nm | signal 10% cynomolgus serum [OD405 nm] [24]: 0.039 OD405 nm | signal 10% human serum [OD405 nm] [24]: 1.39 OD405 nm | signal buffer [OD405 nm] [24]: 0.033 OD405 nm | signal 10% cynomolgus serum [OD405 nm] [25]: 0.035 OD405 nm | signal 10% human serum [OD405 nm] [25]: 1.42 OD405 nm | signal buffer [OD405 nm] [25]: 0.033 OD405 nm
